Experiments:
Assay in all cases: BLI (Octet), biotinylated RBD on streptavidin biosensor, Fab in solution
[1] = molecular target: Delta strain RBD, biotinylated (SARS-CoV-2 (Delta strain), UniProt P0DTC2 331-529)
[2] = molecular target: Omicron strain (BA.2) RBD, biotinylated (SARS-CoV-2 (Omicron strain BA.2), UniProt P0DTC2 331-529)
[3] = molecular target: Omicron strain (BA.1) RBD, biotinylated (SARS-CoV-2 (Omicron strain BA.1), UniProt P0DTC2 331-529)

Measured: Kd

B1: recombinant Fab protein of antibody No. 2 (Fab, V domains shown)
VH: EVQLVESGGGVVQPGRSLRLSCAASGFKFSKFAMHWVRQAPGKGPEWVAVISYDGNQYHSADSVKGRFTISRDNSFNTLYLQMNSLGPEDTAVYYCARDGPDTSGYYANIYFDFWGQGTLVTVSS
VL: QSVLTQPPSVSGAPGQRVTISCTGSSSNIGAGYDVHWYQQLPGRAPKLLIFDNNNRPSGVPDRFSGSKSGTSASLAITGLQTEDEAYYYCQSYDNSLILAVFGGGTKVTVL
≤ 100 nM: [1] | [2] | [3]

B2: recombinant Fab protein of antibody No. 7 (Fab, V domains shown)
VH: EVQLLESGGGLVQPGGSLRLSCAASGFTFSRYALSWVRQAPGKGLEWVSAISGAAITTYYADSVKGRFTISRDDSRNTLFMQMDSLRAEDTAVYYCAKGDYYDSSGYLAEYFPHWGQGTLVTVSS
VL: SYELTQPPSVSVSPGQTARITCFADALPKQHAYWYQQKAGQAPVLVIFKDTERPSGIPKRFSGSRSGATVTLTISGVQAEDEADYYCQSTDISGVLFGGGTKLTVL
≤ 100 nM: [1] | [2] | [3]

B3: recombinant Fab protein of antibody No. 5 (Fab, V domains shown)
VH: EVQLVESGGGLVQPGGSLRLSCAASGFTFYSYWMTWVRQAPGKGLEWVANIKHDESESHYVDSVRGRFTISRDNAKNSVYLQMKGLRAEDTAVYYCARDGGYNILTAYYHAPSYWGQGTLVTVSS
VL: QSALTQPASVSGSPGQSITISCTGTSSDVGGYNFVSWYRQYPGKAPQLMIYDVSRRPSGDSDRFSGSKSGNTASLTISGLQAEDEAEYHCSSYTGRSPYVVFGGGTKVTVL
≤ 100 nM: [1] | [2] | [3]

B4: recombinant Fab protein of antibody No. 6 (Fab, V domains shown)
VH: QVQLVQSGPEVKKPGTSVKVSCKASGFTFYYSAVQWVRQARGQRLEWLGWMAVGSGKANYAQKFQERLTLTRDMSTSTAYMELSSLRSEDTAVYYCAAPNCTGGSCYDGFNLWGQGTVVTVSS
VL: EIVLTQSPGTLSLSPGDRAILSCRASQTVNSNYLAWYQQKPGQAPRLLIYGTSSRATGIPDRFSGSGSGTDFTLTISRLEPEDFAVYYCQQYGSSPWLFGQGTKVEIK
≤ 100 nM: [1] | [2] | [3]
